Source: patent US20190338034A1 (Genentech, published 2019)
Numbering of substitutions follows the chain as printed. Blank lines part the entries; values can stand above or below the binder they belong to.

Assays:
[1] = target: T1, YW167B.43 Negative Control; assay: SPR (BIAcore), anti-ID captured, YW167B.43 negative control Fab injected at 500 nM, 25 °C. The software prints this 1:1 fit under a flat sensorgram with no response.
T1 construct: also called framework control Fab
Experimental: (§1) Binding affinities of anti-PDL1 anti-ID antibodies were measured by Surface Plasmon Resonance (SPR) using a BIAcore™-[…] instrument. Anti-idiotypic antibodies were captured by an anti-mouse-Fc antibody coated on CM5 biosensor chips to achieve approximately 200 response units (RU). For kinetics measurements, 500 nM of anti-PDL1 Fab or framework control Fab (YW167B.43) (Genentech, South San Francisco, Calif.) were injected in HBS-P+ buffer (0.1M HEPES, 1.5M NaCl, 0.5% Surfactant P20—GE Life Science) at 25° C. with a flow rate of […]. Association rates (kₐ) and dissociation rates (kd) were calculated using a simple one-to-one Langmuir binding model (BIAcore Evaluation Software version 3.2). The equilibrium dissociation constant (KD) was calculated as the ratio koff/kₒₙ. See also FIG. 3-5.

[2] = target: T2, anti-PDL1 Fab (Fab of anti-PD-L1 antibody atezolizumab); assay: SPR (BIAcore), anti-ID captured by anti-mouse-Fc on a CM5 chip, anti-PDL1 antibody Fab injected at 500 nM, 25 °C, 1:1 binding model
T2 construct: Fab format (Genentech); also called anti-PDL1 antibody Fab
Experimental: as §1

[3] = target: T3, atezolizumab (anti-PD-L1 antibody); assay: immunofixation electrophoresis (Sebia IFE) gel shift, atezolizumab 1500 µg/mL in PBS pre-incubated 2 h with anti-ID antibody
T3 construct: Full IgG/Ig kappa antibody as used in the IFE gel shift assays; also called anti-PDL1 antibody atezolizumab

[4] = target: T2, anti-PDL1 Fab (Fab of anti-PD-L1 …); assay: SPR (BIAcore), anti-idiotypic antibody captured by anti-mouse-Fc on CM5 chip, 500 nM anti-PDL1 Fab injected, 25 C, 1:1 Langmuir model
Experimental: as §1

[5] = target: T1, YW167B.43 Negative Control; assay: SPR (BIAcore), anti-ID captured, YW167B.43 negative control Fab injected at 500 nM, 25 °C. The software prints this 1:1 fit under a flat sensorgram with no positive response.
Experimental: as §1

Kd [1]: 31.7 nM
koff [1]: 1.66 s⁻¹
kon [1]: 5.23e+07 M⁻¹ s⁻¹
Kd [2]: 17.5 nM
koff [2]: 0.00648 s⁻¹
kon [2]: 370000 M⁻¹ s⁻¹
binding result [3]: binds
Kd [4]: 16.5 nM
koff [4]: 0.0045 s⁻¹
kon [4]: 279000 M⁻¹ s⁻¹
B1: anti-idiotypic anti-PD-L1 antibody 105D11 (antibody, mouse IgG2a, kappa, V domains shown)
VH: EVQLVETGGGLVKPGGSLKLSCAASGFAFSSYDMSWVRQTPEKRLEWVAYISSGGGSTYYPDTVKGRFTISRDNAKNTLYLQMSSLKSEDTAMYYCARLVYYDYDDAMDYWGQGTSVTVSS
VL: DIVLTQSPAIMSASPGEKVTITCSASSSVSYMHWFQQKPGTSPKLWIYSTSNLASGVPARFSGSGSGTSYSLTISRMEAEDAATYYCQQRSSYPPTFGGGTRLEIKR
notes: Mouse monoclonal from a hybridoma

Kd [2]: 2.64 nM
koff [2]: 0.000949 s⁻¹
kon [2]: 360000 M⁻¹ s⁻¹
binding result [3]: binds
Kd [5]: 127 nM
koff [5]: 0.000421 s⁻¹
kon [5]: 3310 M⁻¹ s⁻¹
Kd [4]: 2.31 nM
koff [4]: 0.000977 s⁻¹
kon [4]: 421000 M⁻¹ s⁻¹
B2: anti-idiotypic anti-PD-L1 antibody 48C1 (antibody, mouse IgG2a, kappa, V domains shown)
VH: B1 VH with T7S, L99T, V100I, D103G, A107V
VL: B1 VL with D1Q, S92G, R102K
notes: Mouse monoclonal from a hybridoma; also called atezolizumab anti-idiotypic mouse mAB clone 48C1; atezolizumab anti-ID antibody 48C1

Kd [1]: 0.222 nM
koff [1]: 0.000128 s⁻¹
kon [1]: 574000 M⁻¹ s⁻¹
Kd [2]: 89 nM
koff [2]: 0.00878 s⁻¹
kon [2]: 98600 M⁻¹ s⁻¹
binding result [3]: binds
Kd [4]: 90.7 nM
koff [4]: 0.00862 s⁻¹
kon [4]: 95000 M⁻¹ s⁻¹
B3: anti-idiotypic anti-PD-L1 antibody 43B5 (antibody, mouse IgG2a, kappa, V domains shown)
VH: EVQLQQSGPELVKPGASVKISCKASGYSFTDYIMLWVKQSHGKSLEWIGNINPYYGSTSYNLKFKGKATLTVDKSSSTAYMQLNSLTSEDSAVYYCARWGGNYEGWFAYWGQGTLVTVSA
VL: DIKMTQSPSSMSVSLGDTVSITCHASQGISSNIGWLQQKPGKSFKGLIYHGTNLEDGVPSRFSGSGSGADYSLTISSLESEDFADYYCVQYAQFPLTFGAGTKLELKR
notes: as for B1
